From paper PMC3005839
Values joined by “and” are separate entries in the source; they are usually repeats but may differ in a detail not shown here. Equal entries are not always repeated.

What was measured:
[1] = molecular target: Nucleosome core particle NCP147 (Xenopus laevis); assay: native gel or EMSA; near physiological ionic strength: 1X TBE (89 mM Tris-HCl, 89 mM boric acid, 1.0 mM EDTA, pH 8.3); preassembled NCP or array incubated with HMGN about 30 min at room temperature, electrophoresis at 4°C; 0.5 μM nucleosome core sites
[2] = molecular target: Nucleosome core particle NCP-601 (Xenopus laevis); assay: as above
[3] = molecular target: Centered nucleosome core particle NCP146b (Xenopus laevis); assay: native gel or EMSA; low ionic strength: 0.25X TBE (0.25X TAE for 12-array); preassembled NCP or array incubated with HMGN or NBD peptide about 30 min at room temperature, electrophoresis at 4°C; 0.5 μM nucleosome core sites; NCP on 6% polyacrylamide, array on 1% agarose/1.3% polyacrylamide
[4] = molecular target: Nucleosome core particle NCP147 (Xenopus laevis); assay: as above
[5] = molecular target: Nucleosome core particle NCP-601 (Xenopus laevis); assay: as above

Row | stoichiometry N (HMGN : nucleosome core particle) [1] | stoichiometry N (HMGN : nucleosome core particle) [2] | stoichiometry N (HMGN : nucleosome) [3] | stoichiometry N (HMGN : nucleosome) [4] | stoichiometry N (HMGN : nucleosome) [5] | Substance
1 | 2 | 2 | 1 and 2 | 1 and 2 | 1 and 2 | Xenopus laevis HMGN1 (natural protein)
2 | 2 | 2 | 1 and 2 | 1 and 2 | 2 and 1 | Xenopus laevis HMGN2 (natural protein)
